“Also recorded” adds a separate entry of the source. Where no end group is shown, it is not given here. fluorescein = amino-terminal fluorescein label
Assays:
[1] = system: Ctf4-4E (471-927); assay: Fluorescence anisotropy, Sld5 peptide binding to Ctf4-4E; parameters: species or system budding yeast; conditions: Figure S2B; 40 nM fluorescein-labeled Sld5 peptide, pH 7.2, 25°C
Experimental: (§1) The lowest concentration of peptide at which the binding studies could be performed was determined via peptide calibration curves. Fluorescence anisotropy measurements were recorded in a PHERAstar Plus multi-detection plate reader (BMG Labtech) equipped with fluorescence polarization optic module (λex = 485 nm; λem = 520 nm) at 25°C. Each data point is the mean of 200 flashes/well. The voltage gain was set by adjusting the target mP values of fluorescein-labeled peptides relative to that of fluorescein (35 mP). Serial dilutions of Ctf4CTD were made in 20 mM HEPES (pH 7.2), 140 mM KCl, and 5% (w/v) glycerol in the presence of 40 nM (Sld5 and Tof2) or 50 nM (Dna2) fluorescein-labeled peptide. For Dna2 peptide, each data point is the mean of three independent experiments and curve fitting to the experimental data was performed in pro Fit 6.2 (QuantumSoft) using a Levenberg-Marquardt fitting algorithm in combination with a Gaussian error distribution analysis.

[2] = system: Ctf4-I901E (471-927); assay: Fluorescence anisotropy, Sld5 peptide binding to Ctf4-I901E; parameters: species or system budding yeast; conditions: Figure S2B; 40 nM fluorescein-labeled Sld5 peptide, pH 7.2, 25°C
Experimental: as §1

[3] = molecular target: Sld5 CIP-box (Saccharomyces cerevisiae) (UniProt Q03406); conditions: cited from earlier work
[4] = molecular target: Pol1 CIP-box (Saccharomyces cerevisiae) (UniProt P13382); conditions: cited from earlier work
[5] = system: Tof2; assay: Yeast two-hybrid with Tof2; format: binding, budding yeast
Experimental: (§2) Yeast growth, two-hybrid analysis, and immunoprecipitation experiments were performed as described in detail previously ([Maculins et al., 2015], [Maric et al., 2014]). A two-hybrid screen against amino acids 461–927 of Ctf4 was performed by the company Hybrigenics.

[6] = system: CMG helicase; assay: Co-purification with CMG helicase from yeast cell extracts; format: cell-based, budding yeast; conditions: extracts of S phase yeast cells; immunoprecipitation, immunoblotting
Experimental: (D) Cultures of ctf4-4E MCM4-9MYC (YFV13) and MCM4-9MYC control cells (YSS75) were synchronized in G1-phase at 30°C and then released into S phase for 20 min. The Mcm4-9MYC was isolated from cell extracts by immunoprecipitation and the associated proteins monitored by immunoblotting. (E) ctf4-4E is synthetic lethal with mrc1Δ. The cells were processed as in Figure 1A, and the photos in the lower images were taken after 20 hr growth at 30°C (the scale bars represent 50 μm). See also Figure S2. TEXT PRINTED IN THE PICTURE: (C) Ctf4-4E (471-927): 162 kDa
as §2

[7] = system: Dna2; assay: Yeast two-hybrid with Dna2; format: binding, budding yeast
Experimental: as §2

[8] = system: Pol1; assay: Yeast two-hybrid with Pol1; format: binding, budding yeast
Experimental: as §2

[9] = system: Dpb2; assay: Yeast two-hybrid with Dpb2; format: binding, budding yeast
Experimental: as §2

[10] = molecular target: T1, Ctf4 471–927 (budding yeast, UniProt Q01454 471-927); assay: native MS; 5-fold or 10-fold molar excess of peptide mixed with 100 μM Ctf4CTD in 500 mM ammonium acetate, at least 30 min; conditions: both partners purified
T1 construct: also called Ctf4CTD; source: purified Ctf4CTD protein
T1 sequence (looked up): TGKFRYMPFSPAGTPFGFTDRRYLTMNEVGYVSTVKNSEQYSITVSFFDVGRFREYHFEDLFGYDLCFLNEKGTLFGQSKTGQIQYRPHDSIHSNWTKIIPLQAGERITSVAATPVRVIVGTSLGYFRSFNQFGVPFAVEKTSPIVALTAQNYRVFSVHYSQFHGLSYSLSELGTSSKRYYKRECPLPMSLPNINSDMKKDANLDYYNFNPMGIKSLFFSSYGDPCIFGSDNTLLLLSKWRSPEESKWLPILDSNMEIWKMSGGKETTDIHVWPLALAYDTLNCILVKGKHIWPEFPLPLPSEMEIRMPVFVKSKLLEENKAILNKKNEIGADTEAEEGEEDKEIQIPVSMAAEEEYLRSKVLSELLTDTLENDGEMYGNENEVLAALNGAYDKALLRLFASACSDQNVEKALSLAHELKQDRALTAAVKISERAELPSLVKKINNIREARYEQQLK

[11] = molecular target: T1, Ctf4 471–927; assay: pull-down; GST fusion on Glutathione Sepharose beads; 500 μl purified Ctf4CTD at 2 mg/ml, 1 hr at 4°C; 20 mM HEPES pH 7.2, 150 mM NaCl, 5% glycerol, 0.1% Igepal CA-630, 1 mM TCEP, 1% BSA; SDS-PAGE; conditions: both partners purified
[12] = SEC-MALS; format: physicochemical; conditions: residues 471–927, 2 mg/ml, 20 mM HEPES pH 7.2, 160 mM NaCl
Experimental: 100 μl of Ctf4CTD 4E mutant protein (with mutated binding site for type I CIP-boxes) at a concentration of 2 mg/ml was loaded onto a Superdex S200 HR 10/300 gel-filtration column (GE Healthcare) in 20 mM HEPES pH 7.2, 160 mM NaCl at a flow rate of 0.5 ml/min. The column was controlled using an Äkta Purifier System (GE Healthcare) and was linked to a DAWN 8^+ 8-angle light scattering detector (Wyatt Technology) with a fused silica sample cell using a laser wavelength of 664 nm. The change in the refractive index was detected using an Optilab T-rEX refractometer with extended range (Wyatt Technology) using a wavelength of 658 nm. Data collection and analysis was carried out using the ASTRA6 software package (Wyatt Technology). Molecular weight determination across the sample peak was carried out using a Zimm-plot derived global fitting algorithm with a fit degree of 1 and a dn/dc value of 0.1850 ml/g.

[13] = molecular target: T1, Ctf4 471–927; assay: fluorescence polarisation; fluorescence anisotropy; serial dilutions of Ctf4CTD with 40 nM (Sld5, Tof2) or 50 nM (Dna2) fluorescein-labeled peptide; 20 mM HEPES pH 7.2, 140 mM KCl, 5% glycerol, 25°C; conditions: both partners purified

With “Sld5 peptide (1-19): isolated peptide containing the Sld5 CIP-box, residues 1-19 (MDINIDDILAELDKETTAV; also: fluorescein-labeled, end not given here; UniProt Q03406 1-19, looked up, fragment)” the “binding to Ctf4-4E (in words)” value [1] was “blocked binding; also recorded: neither Ctf4-4E nor Ctf4-I901E could bind” and the “binding to Ctf4-I901E (in words)” value [2] was “blocked binding; also recorded: neither Ctf4-4E nor Ctf4-I901E could bind”.

In the case of Ctf4 (from UniProt Q01454), the Kd [3] is given as 5 µM and the Kd [4] is given as 25 µM.

B1: Ctf4-3E: Ctf4 with M731, I740, and L756 mutated to glutamate; disrupts binding site for type II CIP-box proteins (protein)
chain: MVSVIDKLVFDFGGKTLVSLAPDNNTLCVANKNGLTKILKTNNPEEEPETLDSSKLVSSIKCYSNSHFLMTTMQGDALRYNIDSSQEELLARFALPLRDCCVIHSGKMAVFGGDDLELILLELDDETHKKHAIKIDEQVSQISYNSQMNILAVSMINGKVQIFSLTSTIPNKVHELNDYIVANSYDDTHRDKILSNMMDDIDKDNDNDLSETADPDENNVADPEFCAANRICTRVAWHPKGLHFALPCADDTVKIFSIKGYSLQKTLSTNLSSTKAHFIDLQFDPLRGTYIAAVDLNNKLTVWNWETSEIHYTREFKRKITNIAWKIQADSKTLDLVLGTWSGSIAIVQNLAESVVSNIPDQSVAESSTKHGLFVDSESDLENLEGNDDINKSDKLFSDITQEANAEDVFTQTHDGPSGLSEKRKYNFEDEEDFIDDDDGAGYISGKKPHNEHSYSRVHKTHSFPISLANTGKFRYMPFSPAGTPFGFTDRRYLTMNEVGYVSTVKNSEQYSITVSFFDVGRFREYHFEDLFGYDLCFLNEKGTLFGQSKTGQIQYRPHDSIHSNWTKIIPLQAGERITSVAATPVRVIVGTSLGYFRSFNQFGVPFAVEKTSPIVALTAQNYRVFSVHYSQFHGLSYSLSELGTSSKRYYKRECPLPMSLPNINSDMKKDANLDYYNFNPMGIKSLFFSSYGDPCIFGSDNTLLLLSKWRSPEESKWLPILDSNMEIWKESGGKETTDEHVWPLALAYDTLNCIEVKGKHIWPEFPLPLPSEMEIRMPVFVKSKLLEENKAILNKKNEIGADTEAEEGEEDKEIQIPVSMAAEEEYLRSKVLSELLTDTLENDGEMYGNENEVLAALNGAYDKALLRLFASACSDQNVEKALSLAHELKQDRALTAAVKISERAELPSLVKKINNIREARYEQQLK
In the case of B1, the “interaction with Tof2 (in words)” value [5] is reported as “abolished interaction”, the “association with CMG helicase (in words)” value [6] is reported as “did not prevent association of Ctf4 with the CMG helicase” and the “interaction with Dna2 (in words)” value [7] is reported as “without affecting interaction”. The “interaction with Pol1 (in words)” value [8] was “without affecting interaction” and the “interaction with Dpb2 (in words)” value [9] was “unable to interact”.

B2: Tof2 peptide 497–517 (peptide)
peptide: fluorescein-SHAKDVKIQETIRKLNRFKPT
notes: Tof2, yeast, amino acids 497-517; also called Tof2 CIP-box peptide; peptide containing the Tof2 CIP-box; source: synthetic peptide (Cambridge Peptides)
B2: binds [10].

B3: GST-Dna2 CIP-box 207–223 (domain or fragment, yeast)
chain: SLRNIDDILDDIEGDLT
notes: Dna2, budding yeast, residues 207-223 (CIP-box)
B3: binds [11].

B4: Ctf4-4E: Ctf4 L867E-A871E-A897E-I901E, mutated binding site for type I CIP-boxes (protein, UniProt Q01454 2-927, looked up, variant L867E A871E A897E I901E)
DNA polymerase alpha-binding …: VSVIDKLVFDFGGKTLVSLAPDNNTLCVANKNGLTKILKTNNPEEEPETLDSSKLVSSIKCYSNSHFLMTTMQGDALRYNIDSSQEELLARFALPLRDCCVIHSGKMAVFGGDDLELILLELDDETHKKHAIKIDEQVSQISYNSQMNILAVSMINGKVQIFSLTSTIPNKVHELNDYIVANSYDDTHRDKILSNMMDDIDKDNDNDLSETADPDENNVADPEFCAANRICTRVAWHPKGLHFALPCADDTVKIFSIKGYSLQKTLSTNLSSTKAHFIDLQFDPLRGTYIAAVDLNNKLTVWNWETSEIHYTREFKRKITNIAWKIQADSKTLDLVLGTWSGSIAIVQNLAESVVSNIPDQSVAESSTKHGLFVDSESDLENLEGNDDINKSDKLFSDITQEANAEDVFTQTHDGPSGLSEKRKYNFEDEEDFIDDDDGAGYISGKKPHNEHSYSRVHKTHSFPISLANTGKFRYMPFSPAGTPFGFTDRRYLTMNEVGYVSTVKNSEQYSITVSFFDVGRFREYHFEDLFGYDLCFLNEKGTLFGQSKTGQIQYRPHDSIHSNWTKIIPLQAGERITSVAATPVRVIVGTSLGYFRSFNQFGVPFAVEKTSPIVALTAQNYRVFSVHYSQFHGLSYSLSELGTSSKRYYKRECPLPMSLPNINSDMKKDANLDYYNFNPMGIKSLFFSSYGDPCIFGSDNTLLLLSKWRSPEESKWLPILDSNMEIWKMSGGKETTDIHVWPLALAYDTLNCILVKGKHIWPEFPLPLPSEMEIRMPVFVKSKLLEENKAILNKKNEIGADTEAEEGEEDKEIQIPVSMAAEEEYLRSKVLSELLTDTLENDGEMYGNENEVLAALNGAYDKALERLFESACSDQNVEKALSLAHELKQDRALTEAVKESERAELPSLVKKINNIREARYEQQLK
For B4, the “interaction with Tof2 (in words)” value [5] was “still able to interact”, the “oligomeric state (in words)” value ([12]; SEC-MALS) was “able to form a trimer in vitro; also recorded: trimeric” and the “molecular mass by SEC-MALS” value ([12]; printed in Figure 2C) was 162 kDa. The “association with CMG helicase (in words)” value [6] was “unable to interact with the CMG helicase”, the “interaction with Dna2 (in words)” value [7] was “unable to interact” and the “interaction with Pol1 (in words)” value [8] was “does not interact with the amino terminus of Pol1; also recorded: unable to interact”. For the same molecule, the “interaction with Dpb2 (in words)” value [9] was “still able to interact”.

B5: Dna2 peptide 207–223 (peptide)
peptide: fluorescein-SLRNIDDILDDIEGDLT
notes: Dna2, yeast, residues 207-223; also called Dna2 CIP-box peptide; isolated peptide containing the Dna2 CIP-box; source: synthetic peptide (Cambridge Peptides)
In the case of B5, the Kd [13] is reported as 230 µM.
